Data on six molecules can be found in patent publication US20040023313A1 (Amgen, published 2004).

Where a chain is given by its changes, count along the chain named.

Sequences and labels used below:
B1: 16E1 anti-OPGL antibody (antibody, V domains shown)
VH: EVQLVQSGGGLVHPGGSLRLSCAGSGFTFSGHALHWVRQAPGKGLEWVSGIGTHGGTYYADSVKGRFTISRDNAKNSLFLQMNSLSAEDMAVYYCTRRNWGQFDYWGQGTLVTVSS
VL: EIVLTQSPATLSLSPGERATLSCRASQSVSSYLAWYQQKPGQAPRLLIYDASNRATGIPARFSGSGSGTDFTLTISSLEPEDFAVYYCQQRSNWPPYTFGQGTKLEIKR
notes: Fully human IgG1 kappa from HuMab mice
B2: 22B3 anti-OPGL antibody (antibody, human IgG1, kappa, V domains shown)
VH: EVQLVQSGGGLVHPGGSLRLSCEGSGFTFSSNGMHWVRQTPGKGLEWVSGIGTAGGTYYADSVKGRFTISRDNVKKSLYLQMNSLRAEDMAIYYCVRKNWGWFDPWGQGALVTVSS
VL: B1 VL with S30N, Y36F, V85I, Y97F
notes: as for B1
B3: 2E11 anti-OPGL antibody (antibody, V domains shown)
VH: EVQLVQSGGDLVHPGGSLRLSCVGSGFTFSHYPLHWVRQAPGKGLEWISGIHTGGGTYYTDSVKGRFTISSDNAKNSLYLQMNTLRAEDMAVYYCARGRNSFDYWGQGTLVIVSS
VL: DIQMTQSPSSLSASVGDRVTITCRASQGISSWLAWYQQKPEKAPKSLIYAASSLQSGVPSRFSGSGSGTDFTLTISSLQSEDFATYYCQQYNSYPPTFGQGTRLEIKR
notes: Fully human IgG1 kappa from HuMab mice; also called 2 µl 1
B4: 18B2 anti-OPGL antibody (antibody, V domains shown)
VH: EVQLVQSGGGLVHPGGSLRLSCVGSRFTFSAYPMHWVRQAPGKGLEWVSGIGSGGGTNYADSVKGRFTISRDTAKNSLYLQMNSLRAEDMAVYYCARGRNSFDYWGQGTLVTVSS
VL: B3 VL with S31T, S80P, R103K, L104V
notes: as for B1
B5: 9H7 anti-OPGL antibody (antibody, V domains shown)
VH: B2 VH with N99D
VL: B1 VL with V29I, N93K
notes: Fully human IgG1 kappa from HuMab mice; also called 9H7 anti-OPGL MAb
B6: 2D8 anti-OPGL antibody (antibody, V domains shown)
VH: B2 VH with E23A, N32Y, T40A, A54G, K76N, I92V, V96A, P105Y, A110T
VL: B1 VL with V29I, N93K
notes: as for B1

In the first assay the target is T1, FLAG-murine OPGL [158-316]/DE (murine, UniProt O35235 158-316).
T1 construct: The same paragraph also prints the changes as S231D, V232L, P233A and D235E (T234 unchanged), a numbering two higher than the 229-233 it gives first
Nature of the assay: ELISA: plate coated with FLAG-murine OPGL[158-316]/DE at 3 µg/mL, antibody titrated 1.95-2000 ng/ml, goat anti-human IgG (Fc) detection, ABTS, OD405. The procedure: (§1) After overnight incubation, the protein solutions were removed from the plate and 200 μL of 5% Chicken Serum (Gibco/BRL Cat# 16110-082) in PBST (PBS plus 0.05% Tween 20) was added to each well of the plate and plates were incubated at room temperature (RT) for 3 hours with agitation. After incubation and blocking, plates were washed 4 times with 1× K-P wash solution in dH₂O (Cat# 50-63-00, Kirkegaard & Perry Laboratories) and dried. […] Plates were incubated for 2.25 hours at room temperature with agitation, washed four times with 1× K-P wash solution and dried. Goat anti-human IgG (Fc) (Jackson ImmunoResearch, Cat# 109-036-098) was diluted 1:3000 in 5% Chicken Serum in PBST and 100 μL was added to each well. […] 100 μL of undiluted ABTS substrate (Kirkegaard & Perry; Cat# 50-66-00) was added to each well and the dish was incubated at room temperature until sufficient blue-green color developed. Color development was stopped by addition of 100 μL 1% SDS. Quantitation of color development was performed using a microtiter plate reader with detection at 405 nm.
A general note: ELISA stands for enzyme-linked immunosorbent assay.
Regarding B1, the concentration giving a half-maximal response (EC50 (read off the curve)) is ~0.01 mg/L.

Consider B2, for which the concentration giving a half-maximal response (EC50 (read off the curve)) was ~0.009 mg/L.

As to B3, the binding result is listed as “no binding (tested: 2000 ng/ml)”.

The target in a further assay is T2, CHO human OPGL (hOPGL) 140 (human, UniProt O14788 140-317).
T2 construct: also called CHO hOPGL 140
T2 sequence (looked up): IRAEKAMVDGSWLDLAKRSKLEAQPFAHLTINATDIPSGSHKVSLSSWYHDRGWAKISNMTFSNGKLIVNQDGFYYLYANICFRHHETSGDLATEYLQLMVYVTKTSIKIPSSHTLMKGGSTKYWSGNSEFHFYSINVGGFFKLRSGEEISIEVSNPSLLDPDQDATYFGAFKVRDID
Nature of the assay: SPR (BIAcore 2000), antibody captured on Protein G, hOPGL 140 in solution 0.25-62 nM, Langmuir 1:1. On the procedure:
(§2) All experiments were performed on a BlAcore 2000 according to the manufacturer's instructions, with the following modifications. Experiments were performed at room temperature using a running buffer containing 10 mM Hepes (pH 7.4), 0.15M NaCl, 3 mM EDTA, and 0.005% Tween 20. Protein G at 50 μg/mL in 10 mM acetate pH 4.5 was immobilized to a level of 1,600 response units (RU) onto a CM5 Research grade sensor chip (BlAcore, Inc.). Antibodies (8-20 μg/mL) were captured onto the Protein G chip at a level of 300-400 RUs. […] Langmuir 1:1 model was used to determine binding kinetics. Protein G immobilized to 1600 RUs was used as a blank surface. A mouse monoclonal antibody was used as a positive control to show binding to hOPGL 140 and to monitor surface stability.
(SPR reads the build-up and loss of mass on a sensor chip optically.)
As to B1, the off-rate constant (koff) was 0.000137 s⁻¹, the association rate constant (kon) worked out at 2.16e+06 M⁻¹ s⁻¹ and the “off rate half life t½” value came to 1.41 h.

Take B2: the koff was 6.39e-05 s⁻¹, the kon worked out at 1.9e+06 M⁻¹ s⁻¹ and the “off rate half life t½” value worked out at 3.01 h.

Regarding B4, the koff came out at 0.000186 s⁻¹, the kon was determined as 878000 M⁻¹ s⁻¹ and the “off rate half life t½” value was determined as 1.03 h.

With B3, the koff was 0.000132 s⁻¹, the kon worked out at 453000 M⁻¹ s⁻¹ and the “off rate half life t½” value worked out at 1.46 h.

For the next assay, the target named is T3, OPGL used in the RAW 264.7 osteoclast formation assay (Example 6) (human, UniProt O14788 143-317, limits assumed).
T3 sequence (looked up): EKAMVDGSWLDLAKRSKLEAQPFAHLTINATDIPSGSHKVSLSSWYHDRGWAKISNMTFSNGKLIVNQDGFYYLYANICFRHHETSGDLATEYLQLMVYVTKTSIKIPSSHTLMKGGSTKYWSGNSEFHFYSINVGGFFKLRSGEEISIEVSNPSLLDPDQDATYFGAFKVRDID
Kind of assay: cell-based or functional assay.
As for B5, the “IC50 (ng/mL), inhibition of OPGL-driven osteoclast formation of RAW 264.7 cells (TRAP activity, OD 405 nM)” value (“IC50 (ng/mL), inhibition” below) stood at 129 ng/mL.

With B1, the “IC50 (ng/mL), inhibition” value was determined as 352 ng/mL.

As for B6, the “IC50 (ng/mL), inhibition” value amounted to 611 ng/mL.

Consider B2, for which the “IC50 (ng/mL), inhibition” value was found to be 146 ng/mL.

Consider B4, for which the “IC50 (ng/mL), inhibition” value is 80 ng/mL.

Consider B3, for which the “IC50 (ng/mL), inhibition” value was 77 ng/mL.

The target in another assay is T4, Murine OPGL [158-316] (murine, UniProt O35235 158-316).
T4 sequence: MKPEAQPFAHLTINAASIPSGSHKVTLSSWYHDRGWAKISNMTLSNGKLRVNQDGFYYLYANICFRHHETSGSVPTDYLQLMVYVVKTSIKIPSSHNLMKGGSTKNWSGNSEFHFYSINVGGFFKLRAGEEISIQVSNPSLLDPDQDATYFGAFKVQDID
Kind of assay: ELISA: plate coated with murine OPGL[158-316] at 3 µg/mL, antibody titrated 1.95-2000 ng/ml, goat anti-human IgG (Fc) detection, ABTS, OD405. The procedure:
as §1
With B5, the binding result was “no binding (tested: 2000 ng/ml)”.

Regarding B1, the binding result is reported as “no binding (tested: 2000 ng/ml)”.

Turning to B6, the binding result is “no binding (tested: 2000 ng/ml)”.

Take B4: the binding result is recorded as “no binding (tested: 2000 ng/ml)”.

Turning to B3, the binding result is reported as “no binding (tested: 2000 ng/ml)”.

The next assay deals with T5, E. coli mouse OPGL (mOPGL) 158 (mouse, UniProt O35235 158-316).
T5 construct: kept apart
T5 sequence (looked up): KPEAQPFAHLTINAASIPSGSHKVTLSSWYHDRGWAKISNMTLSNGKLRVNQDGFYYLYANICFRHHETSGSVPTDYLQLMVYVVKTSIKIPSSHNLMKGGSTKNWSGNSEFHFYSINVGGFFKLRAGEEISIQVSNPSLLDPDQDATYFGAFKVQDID
Kind of assay: SPR (BIAcore 2000), antibody captured on Protein G, mOPGL 158 in solution. On the procedure:
as §2
B5: the binding result is reported as “no binding (tested: 0.25-62 nM)”.

As to B1, the binding result is reported as “no binding (tested: 0.25-62 nM)”.

B6: the binding result is “no binding (tested: 0.25-62 nM)”.

As for B4, the binding result is “no binding (tested: 0.25-62 nM)”.

For the molecule B3, the binding result is “no binding (tested: 0.25-62 nM)”.

What is called EC50 (read off the curve) is the concentration giving half of the maximal effect. For orientation: koff means the rate constant with which the complex falls apart. Low values mean a long-lived complex, high ones a short-lived complex. Broadly, the kon is the rate constant with which the complex forms. Low values mean slower complex formation, high ones faster complex formation.
